The record followed here is patent US20120039802A1 (published 2012).

The chains are these.
B1: 465-A03 peptide-displaying phage (SEQ ID NO: 373) (peptide)
peptide: GSSQICAVYLDDTHNCERHAP
B2: 442-E03 peptide-displaying phage (SEQ ID NO: 381) (peptide)
peptide: GSGMGCHQVNISTGDCAEDAP
B3: 551-H10 peptide-displaying phage (SEQ ID NO: 370) (peptide)
peptide: GSFFPCWRIDRFGYCHANAP
B4: 552-G09 peptide-displaying phage (SEQ ID NO: 096) (peptide)
peptide: AGEIFCVGPPTFTCMWTGT
B5: 573-F04 peptide-displaying phage (SEQ ID NO: 011) (peptide)
peptide: AGGFACGPPWDICWMFGT
B6: 549-G01 peptide-displaying phage (SEQ ID NO: 368) (peptide)
peptide: GSTKVCHEKWNQLFCHNQAP
B7: 453-A05 peptide-displaying phage (SEQ ID NO: 382) (peptide)
peptide: GSGDPCSPGPSINGHCSVMAP
B8: 445-G12 peptide-displaying phage (SEQ ID NO: 380) (peptide)
peptide: GSLYRCLGEASPTPPCAYEAP
B9: 547-H03 peptide-displaying phage (SEQ ID NO: 095) (peptide)
peptide: AGETFCSGWPTFECMQWGT
B10: 445-E06 peptide-displaying phage (SEQ ID NO: 375) (peptide)
peptide: GSSARCDELINDFHSCLVMAP
B11: 561-C08 peptide-displaying phage (SEQ ID NO: 010) (peptide)
peptide: GSFNICPYQWCTLWAP
B12: 550-G07 peptide-displaying phage (SEQ ID NO: 098) (peptide)
peptide: AGAFFCSGPPTFMCSLYGT
B13: 557-A12 peptide-displaying phage (SEQ ID NO: 372) (peptide)
peptide: GSTMSCWRWGRDAYSCNQMAP
B14: 545-C11 peptide-displaying phage (SEQ ID NO: 367) (peptide)
peptide: GSFAPCGWPSFAIDCIAEAP
B15: 446-E12 peptide-displaying phage (SEQ ID NO: 374) (peptide)
peptide: GSSHCNQMITPWQNCGMRAP
B16: 452-A03 peptide-displaying phage (SEQ ID NO: 376) (peptide)
peptide: GSRFHCWQGDLMQTYCMPMAP
B17: 550-A08 peptide-displaying phage (SEQ ID NO: 097) (peptide)
peptide: AGDFICQGPPSFVCTNIGT
B18: 552-F02 peptide-displaying phage (SEQ ID NO: 092) (peptide)
peptide: AGMTLCAGPPTFECYEVGT
B19: 548-C10 peptide-displaying phage (SEQ ID NO: 100) (peptide)
peptide: GSEFECTGWPEFRCYEYAP
B20: 570-E07 peptide-displaying phage (SEQ ID NO: 012) (peptide)
peptide: AGAWNCEYPTFICEWQGA
B21: 545-E04 peptide-displaying phage (SEQ ID NO: 093) (peptide)
peptide: AGETKCSGPPYFYCWMEGT
B22: 551-A05 peptide-displaying phage (SEQ ID NO: 099) (peptide)
peptide: AGWGWCSGPPMFMCTEYGT
B23: 443-D04 peptide-displaying phage (SEQ ID NO: 379) (peptide)
peptide: GSMLGCLFEHQNKYDCYVLAP
B24: 465-C06 peptide-displaying phage (SEQ ID NO: 377) (peptide)
peptide: GSQNNCEYGSRGSSFCLAMAP
B25: 545-E05 peptide-displaying phage (SEQ ID NO: 094) (peptide)
peptide: AGETFCVGNPSFECWSWGT
B26: 465-C10 peptide-displaying phage (SEQ ID NO: 101) (peptide)
peptide: GSILYCINRNDPQCPYTAP
B27: 441-H01 peptide-displaying phage (SEQ ID NO: 378) (peptide)
peptide: GSMNMCDTTDEISPTCHPSAP
B28: 443-H10 peptide-displaying phage (SEQ ID NO: 371) (peptide)
peptide: GSQQICDRKEYRFQACLSDAP

T1 sequence (P08581 25-932): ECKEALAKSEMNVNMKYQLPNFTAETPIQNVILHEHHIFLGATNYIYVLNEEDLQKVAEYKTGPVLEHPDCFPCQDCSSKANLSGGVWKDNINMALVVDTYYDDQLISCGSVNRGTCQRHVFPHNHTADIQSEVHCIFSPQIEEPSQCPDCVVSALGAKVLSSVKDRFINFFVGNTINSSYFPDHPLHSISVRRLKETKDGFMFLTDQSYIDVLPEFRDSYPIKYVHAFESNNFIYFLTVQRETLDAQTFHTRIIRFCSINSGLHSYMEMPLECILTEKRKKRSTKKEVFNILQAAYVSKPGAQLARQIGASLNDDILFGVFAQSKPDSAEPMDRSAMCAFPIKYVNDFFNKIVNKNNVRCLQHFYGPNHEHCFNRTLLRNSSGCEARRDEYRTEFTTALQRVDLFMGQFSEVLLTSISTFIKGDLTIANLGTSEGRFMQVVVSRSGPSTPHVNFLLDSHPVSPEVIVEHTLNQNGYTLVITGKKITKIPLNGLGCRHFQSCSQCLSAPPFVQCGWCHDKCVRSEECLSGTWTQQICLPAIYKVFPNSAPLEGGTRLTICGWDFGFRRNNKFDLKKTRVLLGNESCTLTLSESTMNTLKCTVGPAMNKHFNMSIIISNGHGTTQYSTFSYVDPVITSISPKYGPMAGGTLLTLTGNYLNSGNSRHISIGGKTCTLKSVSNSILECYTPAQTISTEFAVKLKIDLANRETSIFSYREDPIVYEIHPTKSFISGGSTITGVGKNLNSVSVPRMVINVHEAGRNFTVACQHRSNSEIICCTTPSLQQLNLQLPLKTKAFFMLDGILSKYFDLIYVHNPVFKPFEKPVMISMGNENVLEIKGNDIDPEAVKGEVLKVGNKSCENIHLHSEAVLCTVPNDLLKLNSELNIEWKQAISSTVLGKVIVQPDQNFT

The first test concerns the target T1, cMet-Fc fusion protein (extracellular domain of the cMet receptor expressed as an Fc-fusion protein) (human, UniProt P08581 25-932).
T1 construct: extracellular domain; also called soluble cMet-Fc-fusion protein; soluble cMet receptor; not shown: Fc part
The test is described as follows: phage ELISA, cMet-Fc vs TRAIL-Fc. Summed up: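 Plates coated overnight at 4 C with 0.5 μg/mL cMet-Fc, or TRAIL-Fc as background, were blocked with 3% BSA in PBST. Peptide-displaying phage were bound 2 h at room temperature. Bound phage were detected with HRP-conjugated anti-M13 antibody.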
In general terms: In an ELISA, binding on a coated surface is turned into a signal by an enzyme label.
With B1, the “Protein ELISA (fold over background)” value is 4 fold.
On the same count and under the same terms, for B2 the value was 3.9 fold.
On to B3, for which the “Protein ELISA (fold over background)” value is 13.3 fold.
B4: the “Protein ELISA (fold over background)” value is 9.7 fold.
Same read-out and setting: the result for B5 reads 5.6 fold.
For B6, the “Protein ELISA (fold over background)” value is 7 fold.
On the same count and under the same terms, for B7 the value was 4.5 fold; for B8, 4 fold; for B9, 16.2 fold.
The same measure, in the same setting: the result for B10 reads 4.3 fold; that for B11, 3 fold.
The same measure, in the same setting: the result for B12 reads 6.2 fold; that for B13, 4.6 fold; that for B14, 7.7 fold.
As for B15, the “Protein ELISA (fold over background)” value was 3.3 fold.
As to B16, the “Protein ELISA (fold over background)” value is 3 fold.
Regarding B17, the “Protein ELISA (fold over background)” value is 8.4 fold.
For the molecule B18, the “Protein ELISA (fold over background)” value came to 12.3 fold.
Turning to B19, the “Protein ELISA (fold over background)” value stood at 8.4 fold.
On the same count and under the same terms, for B20 the value was 4.5 fold; for B21, 16.3 fold.
On the same count and under the same terms, the result for B22 reads 4 fold; that for B23, 3.2 fold; that for B24, 6.4 fold.
With B25, the “Protein ELISA (fold over background)” value is 10.3 fold.
The same measure, in the same setting: for B26 the value was 3 fold.
In the case of B27, the “Protein ELISA (fold over background)” value came out at 3.6 fold.
The same measure, in the same setting: the result for B28 reads 3.4 fold.

The target in another test is T2, human cMet expressed on 3T3 cells (human, UniProt P08581 25-1390).
T2 construct: whole, on cells; cells fixed with glutaraldehyde; also called cell surface-expressed human cMet; 3T3 cells that over-express human cMet
T2 sequence (P08581 25-1390): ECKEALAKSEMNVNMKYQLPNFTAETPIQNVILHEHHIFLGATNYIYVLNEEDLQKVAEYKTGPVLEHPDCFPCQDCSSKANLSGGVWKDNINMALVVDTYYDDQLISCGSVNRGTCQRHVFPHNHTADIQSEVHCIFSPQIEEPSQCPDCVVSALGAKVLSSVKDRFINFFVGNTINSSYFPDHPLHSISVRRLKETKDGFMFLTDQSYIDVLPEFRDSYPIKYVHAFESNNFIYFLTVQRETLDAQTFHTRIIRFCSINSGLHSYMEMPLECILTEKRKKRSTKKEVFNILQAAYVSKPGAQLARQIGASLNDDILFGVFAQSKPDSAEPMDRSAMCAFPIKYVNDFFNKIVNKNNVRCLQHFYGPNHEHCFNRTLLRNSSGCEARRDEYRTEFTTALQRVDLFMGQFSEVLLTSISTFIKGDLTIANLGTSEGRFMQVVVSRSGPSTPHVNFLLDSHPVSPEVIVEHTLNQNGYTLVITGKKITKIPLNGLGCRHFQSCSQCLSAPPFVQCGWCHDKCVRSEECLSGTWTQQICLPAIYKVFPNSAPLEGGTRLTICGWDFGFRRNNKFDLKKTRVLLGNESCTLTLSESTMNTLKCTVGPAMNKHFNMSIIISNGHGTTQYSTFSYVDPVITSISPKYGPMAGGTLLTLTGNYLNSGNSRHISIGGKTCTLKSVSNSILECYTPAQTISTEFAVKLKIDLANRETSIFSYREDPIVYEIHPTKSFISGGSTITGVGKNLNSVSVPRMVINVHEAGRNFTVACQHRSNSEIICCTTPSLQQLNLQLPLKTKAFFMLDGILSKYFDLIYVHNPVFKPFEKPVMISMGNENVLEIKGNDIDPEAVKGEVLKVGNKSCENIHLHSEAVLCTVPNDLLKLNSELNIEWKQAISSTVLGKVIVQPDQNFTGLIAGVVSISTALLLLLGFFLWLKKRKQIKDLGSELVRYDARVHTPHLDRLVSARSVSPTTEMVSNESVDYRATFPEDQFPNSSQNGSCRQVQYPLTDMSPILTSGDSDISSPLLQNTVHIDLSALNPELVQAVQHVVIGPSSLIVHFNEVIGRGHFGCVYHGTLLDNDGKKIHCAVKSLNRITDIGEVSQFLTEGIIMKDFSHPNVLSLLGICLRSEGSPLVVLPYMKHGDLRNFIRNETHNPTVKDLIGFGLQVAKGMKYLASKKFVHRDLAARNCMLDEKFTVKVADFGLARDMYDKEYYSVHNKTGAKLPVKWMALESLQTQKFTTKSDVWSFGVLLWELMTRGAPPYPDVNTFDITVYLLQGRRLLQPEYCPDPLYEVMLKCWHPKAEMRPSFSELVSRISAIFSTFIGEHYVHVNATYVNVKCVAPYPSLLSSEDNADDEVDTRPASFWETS
The test is described as follows: whole cell phage ELISA, 3T3 human cMet vs 3T3. Put shortly:
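3T3 cells over-expressing human cMet, compared against parental 3T3, seeded at 10⁵ per well and fixed with 0.1% glutaraldehyde for 12 min at 37 C. Blocked peptide-displaying phage bound for 1 h at room temperature. After PBST washes, bound phage was detected with HRP-conjugated anti-M13 antibody.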
Take B1: the “WC ELISA (fold over background)” value is 1.3 fold.
Regarding B2, the “WC ELISA (fold over background)” value turned out to be 1.43 fold.
For B3, the “WC ELISA (fold over background)” value is 1.87 fold.
The same measure, in the same setting: for B4 the value was 1.27 fold; for B5, 1.3 fold.
For B6, the “WC ELISA (fold over background)” value is 1.27 fold.
Still for that read-out and setting: the result for B7 reads 1.33 fold.
Still for that read-out and setting: for B8 the value was 1.37 fold.
On the same count and under the same terms, the result for B9 reads 1.23 fold; that for B10, 1.33 fold; that for B11, 1.37 fold.
As for B12, the “WC ELISA (fold over background)” value stood at 1.27 fold.
The same measure, in the same setting: the result for B13 reads 1.37 fold; that for B14, 1.3 fold.
The same measure, in the same setting: the result for B15 reads 1.37 fold; that for B16, 1.3 fold; that for B17, 1.27 fold.
Turning to B18, the “WC ELISA (fold over background)” value stood at 1.23 fold.
On to B19, for which the “WC ELISA (fold over background)” value was 1.2 fold.
For the molecule B20, the “WC ELISA (fold over background)” value worked out at 1.27 fold.
Same read-out and setting: the result for B21 reads 1.23 fold; that for B22, 1.3 fold; that for B23, 1.43 fold.
On the same count and under the same terms, the result for B24 reads 1.23 fold; that for B25, 1.27 fold; that for B26, 1.27 fold.
As to B27, the “WC ELISA (fold over background)” value was 1.4 fold.
Same read-out and setting: the result for B28 reads 1.4 fold.

The target in a further test is T1, cMet-Fc fusion protein (extracellular …). The test is described as follows: phage ELISA on cMet-Fc, competitor HGF 100 ng/mL. Summed up:
(§1)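 Plates coated with 0.5 μg/mL cMet-Fc, with TRAIL-Fc as background, then blocked with 3% BSA. Bound phage detected with HRP anti-M13 antibody.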
Take B1: the “% of binding in the absence of HGF” value stood at 33%.
B2: the “% of binding in the absence of HGF” value turned out to be 130%.
For the molecule B3, the “% of binding in the absence of HGF” value worked out at 88%.
For B4, the “% of binding in the absence of HGF” value is 98%.
Turning to B5, the “% of binding in the absence of HGF” value is 76%.
Same read-out and setting: for B6 the value was 62%.
On the same count and under the same terms, the result for B7 reads 51%; that for B8, 85%.
Still for that read-out and setting: the result for B9 reads 109%; that for B10, 83%.
Consider B11, for which the “% of binding in the absence of HGF” value is 92%.
Turning to B12, the “% of binding in the absence of HGF” value was determined as 63%.
For B13, the “% of binding in the absence of HGF” value was found to be 87%.
On to B14, for which the “% of binding in the absence of HGF” value came to 77%.
The same measure, in the same setting: the result for B15 reads 73%.
On the same count and under the same terms, the result for B16 reads 140%; that for B17, 52%; that for B18, 60%.
Regarding B19, the “% of binding in the absence of HGF” value was 69%.
B20: the “% of binding in the absence of HGF” value amounted to 81%.
In the case of B21, the “% of binding in the absence of HGF” value worked out at 48%.
Same read-out and setting: the result for B22 reads 68%.
On the same count and under the same terms, the result for B23 reads 69%; that for B24, 184%; that for B25, 70%.
Still for that read-out and setting: the result for B26 reads 95%; that for B27, 91%.
As to B28, the “% of binding in the absence of HGF” value was determined as 124%.

The target is the same in the next test. The test is described as follows: phage ELISA on cMet-Fc, competitor HGF 500 ng/mL. Put shortly:
as §1
Take B1: the “% of binding in the absence of HGF” value was found to be 17%.
Still for that read-out and setting: for B2 the value was 81%.
As to B3, the “% of binding in the absence of HGF” value is 49%.
Still for that read-out and setting: the result for B4 reads 68%; that for B5, 71%.
For the molecule B6, the “% of binding in the absence of HGF” value is 18%.
On to B7, for which the “% of binding in the absence of HGF” value was 28%.
Take B8: the “% of binding in the absence of HGF” value is 52%.
The same measure, in the same setting: the result for B9 reads 53%.
Turning to B10, the “% of binding in the absence of HGF” value came to 73%.
Still for that read-out and setting: the result for B11 reads 96%.
As to B12, the “% of binding in the absence of HGF” value is 36%.
On to B13, for which the “% of binding in the absence of HGF” value worked out at 62%.
Still for that read-out and setting: the result for B14 reads 50%; that for B15, 83%; that for B16, 112%.
Consider B17, for which the “% of binding in the absence of HGF” value worked out at 51%.
Still for that read-out and setting: for B18 the value was 40%.
Turning to B19, the “% of binding in the absence of HGF” value was determined as 57%.
For B20, the “% of binding in the absence of HGF” value amounted to 71%.
The same measure, in the same setting: the result for B21 reads 17%; that for B22, 42%; that for B23, 73%.
Regarding B24, the “% of binding in the absence of HGF” value stood at 104%.
On the same count and under the same terms, for B25 the value was 32%.
As for B26, the “% of binding in the absence of HGF” value amounted to 71%.
The same measure, in the same setting: for B27 the value was 69%; for B28, 143%.
